In patent publication US20250154231A1:
Where two headings read alike, the source gives them in different places.

What was measured:
Assay in all cases: cell-based or functional assay
[1] = target: SARS-CoV-2 spike (S) protein, Victoria strain (SARS-CoV-2) (UniProt P0DTC2)
[2] = target: SARS-CoV-2 Omicron BA.1 spike (S) protein of the live isolate (SARS-CoV-2) (UniProt P0DTC2)
[3] = target: SARS-CoV-2 Omicron BA.1.1 spike (S) protein (SARS-CoV-2) (UniProt P0DTC2)
[4] = target: SARS-CoV-2 Gamma spike (S) protein (SARS-CoV-2) (UniProt P0DTC2)
[5] = target: SARS-CoV-2 spike (S) protein, Omicron BA.4.6 (SARS-CoV-2) (UniProt P0DTC2)
[6] = target: SARS-CoV-2 Alpha spike (S) protein (SARS-CoV-2) (UniProt P0DTC2)
[7] = target: SARS-CoV-2 spike (S) protein, Omicron BA.1.1 (SARS-CoV-2) (UniProt P0DTC2)
[8] = target: SARS-CoV-2 Delta spike (S) protein (SARS-CoV-2) (UniProt P0DTC2)
[9] = target: SARS-CoV-2 spike (S) protein, Omicron BA.1 (SARS-CoV-2) (UniProt P0DTC2)
[10] = target: SARS-CoV-2 Victoria spike (S) protein (SARS-CoV-2) (UniProt P0DTC2)
[11] = target: SARS-CoV-2 spike (S) protein, Omicron BA.2 (SARS-CoV-2) (UniProt P0DTC2)
[12] = target: SARS-CoV-2 spike (S) protein, Omicron BA.3 (SARS-CoV-2) (UniProt P0DTC2)
[13] = target: SARS-CoV-2 Beta spike (S) protein (SARS-CoV-2) (UniProt P0DTC2)
[14] = target: SARS-CoV-2 Omicron BA.2 spike (S) protein (SARS-CoV-2) (UniProt P0DTC2)
[15] = target: SARS-CoV-2 spike (S) protein, Omicron BA.4/5 (SARS-CoV-2) (UniProt P0DTC2)
[16] = target: SARS-CoV-2 spike (S) protein, Omicron BA.2.3.20 (SARS-CoV-2) (UniProt P0DTC2)
[17] = target: SARS-CoV-2 spike (S) protein, Victoria strain (SARS-CoV-2) (UniProt P0DTC2); remark: listed apart in the source
[18] = target: SARS-CoV-2 spike (S) protein, Omicron BA.2.75 (SARS-CoV-2) (UniProt P0DTC2)
[19] = target: SARS-CoV-2 spike (S) protein, Omicron BA.4.6 (SARS-CoV-2) (UniProt P0DTC2); remark: listed apart in the source
[20] = target: SARS-CoV-2 spike (S) protein, Omicron BJ.1 (SARS-CoV-2) (UniProt P0DTC2)
[21] = target: SARS-CoV-2 spike (S) protein, Omicron BA.4/5 (SARS-CoV-2) (UniProt P0DTC2); remark: listed apart in the source
[22] = target: SARS-CoV-2 spike (S) protein, Omicron BA.2.75.2 (SARS-CoV-2) (UniProt P0DTC2)
[23] = target: SARS-CoV-2 spike (S) protein, Omicron BA.2.75 (SARS-CoV-2) (UniProt P0DTC2); remark: listed apart in the source
[24] = target: SARS-CoV-2 spike (S) protein, Omicron BA.2 (SARS-CoV-2) (UniProt P0DTC2); remark: listed apart in the source

| Substance | IC50, pseudoviral neutralization [1] | pseudovirus neutralisation IC50 [1] | IC50, authentic virus neutralization [2] | IC50, authentic virus neutralization [3] | IC50, authentic virus neutralization [4] | IC50, pseudoviral neutralization [5] | IC50, authentic virus neutralization [6] | IC50, pseudoviral neutralization [7] | pseudovirus neutralisation IC50 [7] | IC50, authentic virus neutralization [8] | IC50, pseudoviral neutralization [9] | pseudovirus neutralisation IC50 [9] | IC50, authentic virus neutralization [10] | IC50, pseudoviral neutralization [11] | pseudovirus neutralisation IC50 [11] | IC50, pseudoviral neutralization [12] | pseudovirus neutralisation IC50 [12] | IC50, pseudoviral neutralization [15] | pseudovirus neutralisation IC50 [15] | pseudovirus neutralisation IC50 [23] | other results |
| --- | --- | --- | --- | --- | --- | --- | --- | --- | --- | --- | --- | --- | --- | --- | --- | --- | --- | --- | --- | --- | --- |
| Ly-CoV16 (antibody) | 0.014 µg/mL | 0.014 µg/mL | > 10 µg/mL | > 10 µg/mL | > 10 µg/mL | > 10 µg/mL | 3.23 µg/mL | > 10 µg/mL | > 10 µg/mL | 0.012 µg/mL | > 10 µg/mL | > 10 µg/mL | 0.034 µg/mL | > 10 µg/mL | > 10 µg/mL | > 10 µg/mL | > 10 µg/mL | > 10 µg/mL | > 10 µg/mL | > 10 µg/mL | IC50, authentic virus neutralization [13]: > 10 µg/mL; IC50, authentic virus neutralization [14]: > 10 µg/mL; IC50, pseudoviral neutralization [16]: > 10 µg/mL; IC50, pseudoviral neutralization [17]: 0.014 µg/mL; IC50, pseudoviral neutralization [18]: > 10 µg/mL; IC50, pseudoviral neutralization [19]: > 10 µg/mL; IC50, pseudoviral neutralization [20]: > 10 µg/mL; IC50, pseudoviral neutralization [21]: > 10 µg/mL; IC50, pseudoviral neutralization [22]: > 10 µg/mL |
| ADG20 (antibody) | 0.003 µg/mL | 0.003 µg/mL | 1.1 µg/mL | 1.27 µg/mL | 0.009 µg/mL | > 10 µg/mL | 0.006 µg/mL | 0.253 µg/mL | 0.253 µg/mL | 0.006 µg/mL | 0.348 µg/mL | 0.348 µg/mL | 0.004 µg/mL | > 10 µg/mL | > 10 µg/mL | > 10 µg/mL | > 10 µg/mL | > 10 µg/mL | > 10 µg/mL | > 10 µg/mL | IC50, authentic virus neutralization [13]: 0.01 µg/mL; IC50, authentic virus neutralization [14]: > 10 µg/mL; IC50, pseudoviral neutralization [16]: > 10 µg/mL; IC50, pseudoviral neutralization [18]: > 10 µg/mL; IC50, pseudoviral neutralization [19]: > 10 µg/mL; IC50, pseudoviral neutralization [24]: > 10 µg/mL; IC50, pseudoviral neutralization [20]: > 10 µg/mL; IC50, pseudoviral neutralization [21]: > 10 µg/mL; IC50, pseudoviral neutralization [22]: > 10 µg/mL |
| ADG30 (antibody) | 0.014 µg/mL | 0.014 µg/mL | > 10 µg/mL | > 10 µg/mL | 0.002 µg/mL | > 10 µg/mL | 0.016 µg/mL | > 10 µg/mL | > 10 µg/mL | 0.033 µg/mL | > 10 µg/mL | > 10 µg/mL | 0.007 µg/mL | > 10 µg/mL | > 10 µg/mL | > 10 µg/mL | > 10 µg/mL | > 10 µg/mL | > 10 µg/mL | > 10 µg/mL | IC50, authentic virus neutralization [13]: 0.029 µg/mL; IC50, authentic virus neutralization [14]: > 10 µg/mL |
| ADG10 (antibody) | 0.007 µg/mL | 0.007 µg/mL | > 10 µg/mL | > 10 µg/mL | 0.003 µg/mL | > 10 µg/mL | 0.01 µg/mL | > 10 µg/mL | > 10 µg/mL | 0.026 µg/mL | > 10 µg/mL | > 10 µg/mL | 0.006 µg/mL | > 10 µg/mL | > 10 µg/mL | > 10 µg/mL | > 10 µg/mL | > 10 µg/mL | > 10 µg/mL | > 10 µg/mL | IC50, authentic virus neutralization [13]: 0.011 µg/mL; IC50, authentic virus neutralization [14]: > 10 µg/mL |
| Ly-CoV555 (antibody) | 0.002 µg/mL | 0.002 µg/mL |  |  |  | > 10 µg/mL |  | > 10 µg/mL | > 10 µg/mL |  | > 10 µg/mL | > 10 µg/mL |  | > 10 µg/mL | > 10 µg/mL | > 10 µg/mL | > 10 µg/mL | > 10 µg/mL | > 10 µg/mL | > 10 µg/mL | IC50, pseudoviral neutralization [16]: > 10 µg/mL; IC50, pseudoviral neutralization [17]: 0.002 µg/mL; IC50, pseudoviral neutralization [18]: > 10 µg/mL; IC50, pseudoviral neutralization [19]: > 10 µg/mL; IC50, pseudoviral neutralization [24]: > 10 µg/mL; IC50, pseudoviral neutralization [20]: > 10 µg/mL; IC50, pseudoviral neutralization [21]: > 10 µg/mL; IC50, pseudoviral neutralization [22]: > 10 µg/mL |
| AZD7442 | 0.001 µg/mL | 0.001 µg/mL |  |  |  | > 10 µg/mL |  | 0.806 µg/mL | 0.806 µg/mL |  | 0.232 µg/mL | 0.232 µg/mL |  | 0.008 µg/mL | 0.008 µg/mL | 0.065 µg/mL | 0.065 µg/mL | 0.065 µg/mL | 0.065 µg/mL | 0.017 µg/mL |  |
| REGN10987 (antibody) | 0.002 µg/mL | 0.002 µg/mL | > 10 µg/mL | > 10 µg/mL | 0.013 µg/mL | > 10 µg/mL | 0.028 µg/mL | > 10 µg/mL | > 10 µg/mL | 0.017 µg/mL | > 10 µg/mL | > 10 µg/mL | 0.032 µg/mL | 0.616 µg/mL | 0.616 µg/mL | > 10 µg/mL | > 10 µg/mL | > 10 µg/mL | > 10 µg/mL | > 10 µg/mL | IC50, authentic virus neutralization [13]: 0.007 µg/mL; IC50, authentic virus neutralization [14]: 1.85 µg/mL; IC50, pseudoviral neutralization [16]: > 10 µg/mL; IC50, pseudoviral neutralization [17]: 0.002 µg/mL; IC50, pseudoviral neutralization [18]: > 10 µg/mL; IC50, pseudoviral neutralization [19]: > 10 µg/mL; IC50, pseudoviral neutralization [24]: 0.615 µg/mL; IC50, pseudoviral neutralization [20]: > 10 µg/mL; IC50, pseudoviral neutralization [21]: > 10 µg/mL; IC50, pseudoviral neutralization [22]: > 10 µg/mL |
| AZD1061 (antibody) | 0.002 µg/mL | 0.002 µg/mL | 3.49 µg/mL | > 10 µg/mL | 0.007 µg/mL | > 10 µg/mL | 0.012 µg/mL | > 10 µg/mL | > 10 µg/mL | 0.038 µg/mL | 0.308 µg/mL | 0.308 µg/mL | 0.013 µg/mL | 0.008 µg/mL | 0.008 µg/mL | 0.019 µg/mL | 0.019 µg/mL | 0.015 µg/mL | 0.015 µg/mL | 0.021 µg/mL | IC50, authentic virus neutralization [13]: 0.014 µg/mL; IC50, authentic virus neutralization [14]: 0.028 µg/mL; IC50, pseudoviral neutralization [16]: > 10 µg/mL; IC50, pseudoviral neutralization [17]: 0.002 µg/mL; IC50, pseudoviral neutralization [18]: 0.021 µg/mL; IC50, pseudoviral neutralization [19]: > 10 µg/mL; IC50, pseudoviral neutralization [24]: 0.008 µg/mL; IC50, pseudoviral neutralization [20]: > 10 µg/mL; IC50, pseudoviral neutralization [21]: 0.015 µg/mL; IC50, pseudoviral neutralization [22]: > 10 µg/mL |
